Source: patent EP3205670
Residue numbers refer to the chain shown, from its start.

B1: Numax Fab (antibody, V domains shown)
VH: QVTLRESGPALVKPTQTLTLTCTFSGFSLSTAGMSVGWIRQPPGKALEWLADIWWDDKKHYNPSLKDRLTISKDTSKNQVVLKVTNMDPADTATYYCARDMIFNFYFDVWGQGTTVTVSS
VL: DIQMTQSPSTLSASVGDRVTITCSASSRVGYMHWYQQKPGKAPKLLIYDTSKLASGVPSRFSGSGSGTEFTLTISSLQPDDFATYYCFQGSGYPFTFGGGTKVEIK
B2: Synagis (antibody, V domains shown)
VH: B1 VH with A32S, H60D, D67S, D100S, F103T, F105W, Q112A
VL: B1 VL with S24K, A25C, S26Q, S27L, R28S, V103L
B3: Synagis Fab (antibody, V domains shown)
VH: B1 VH with A32S, H60D, D67S, D100S, F103T, F105W, Q112A
VL: B1 VL with S24K, A25C, S26Q, S27L, R28S, V103L

How the values were obtained:
[1] = target: T1, hRSV F protein (FTM-NN) (hRSV, UniProt P03420); assay: competition, AlphaScreen
[2] = target: T1, hRSV F protein (FTM-NN); assay: SPR

T1 sequence (P03420 26-524): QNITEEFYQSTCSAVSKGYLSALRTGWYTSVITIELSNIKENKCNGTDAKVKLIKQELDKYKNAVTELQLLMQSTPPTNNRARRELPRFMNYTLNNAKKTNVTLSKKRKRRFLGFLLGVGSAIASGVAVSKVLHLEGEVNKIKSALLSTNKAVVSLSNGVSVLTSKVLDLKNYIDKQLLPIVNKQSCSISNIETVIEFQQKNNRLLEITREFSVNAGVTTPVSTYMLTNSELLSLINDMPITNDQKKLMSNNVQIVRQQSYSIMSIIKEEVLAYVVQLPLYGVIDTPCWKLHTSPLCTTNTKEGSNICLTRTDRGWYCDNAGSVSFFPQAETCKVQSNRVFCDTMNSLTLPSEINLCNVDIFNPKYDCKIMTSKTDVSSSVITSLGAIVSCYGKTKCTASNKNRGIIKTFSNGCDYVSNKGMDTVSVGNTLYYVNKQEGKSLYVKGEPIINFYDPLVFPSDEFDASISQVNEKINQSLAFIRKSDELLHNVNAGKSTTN

Binder	IC50 [1]	Kd [2]
B1	0.086 nM	–
B2	–	0.64 nM
B3	0.597 nM	–
